Reference: IntAct's records for PubMed 31515488

B1: Cyclin-D1-binding protein 1 (Homo sapiens), O95273 (parent)
chain: MASATAPAAAVPTLASPLEQLRHLAEELRLLLPRVRVGEAQETTEEFNREMFWRRLNEAAVTVSREATTLTIVFSQLPLPSPQETQKFCEQVHAAIKAFIAVYYLLPKDQGITLRKLVRGATLDIVDGMAQLMEVLSVTPTQSPENNDLISYNSVWVACQQMPQIPRDNKAAALLMLTKNVDFVKDAHEEMEQAVEECDPYSGLLNDTEENNSDNHNHEDDVLGFPSNQDLYWSEDDQELIIPCLALVRASKACLKKIRMLVAENGKKDQVAQLDDIVDISDEISPSVDDLALSIYPPMCHLTVRINSAKLVSVLKKALEITKASHVTPQPEDSWIPLLINAIDHCMNRIKELTQSELEL

Variants of: B1
Details: with ezh1_human EZH1, Q92800

Row | Variant | effect of a mutation on the interaction
1 | I277T | disrupting interaction strength

Variants of: B1
Details: with pex39_human PEX39, Q5I0X4
Sequence of pex39_human PEX39, Q5I0X4 (Q5I0X4 whole entry): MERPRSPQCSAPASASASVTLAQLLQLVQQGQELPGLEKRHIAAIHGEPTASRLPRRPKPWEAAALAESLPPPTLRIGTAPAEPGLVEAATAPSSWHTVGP

Row | Variant | effect of a mutation on the interaction
2 | I277T | disrupting interaction strength

Variants of: B1
Details: with evg1_human C22orf23, Q9BZE7
Sequence of evg1_human C22orf23, Q9BZE7 (Q9BZE7 whole entry): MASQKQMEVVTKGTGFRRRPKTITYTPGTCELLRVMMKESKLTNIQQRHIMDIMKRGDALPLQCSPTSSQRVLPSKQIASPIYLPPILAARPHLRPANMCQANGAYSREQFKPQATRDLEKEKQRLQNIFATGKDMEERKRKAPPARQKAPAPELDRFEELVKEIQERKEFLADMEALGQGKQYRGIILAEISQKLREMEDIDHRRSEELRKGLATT

Row | Variant | effect of a mutation on the interaction
3 | I277T | disrupting interaction strength

Variants of: B1
Details: with map7_human MAP7, Q14244
Sequence of map7_human MAP7, Q14244 (Q14244 whole entry): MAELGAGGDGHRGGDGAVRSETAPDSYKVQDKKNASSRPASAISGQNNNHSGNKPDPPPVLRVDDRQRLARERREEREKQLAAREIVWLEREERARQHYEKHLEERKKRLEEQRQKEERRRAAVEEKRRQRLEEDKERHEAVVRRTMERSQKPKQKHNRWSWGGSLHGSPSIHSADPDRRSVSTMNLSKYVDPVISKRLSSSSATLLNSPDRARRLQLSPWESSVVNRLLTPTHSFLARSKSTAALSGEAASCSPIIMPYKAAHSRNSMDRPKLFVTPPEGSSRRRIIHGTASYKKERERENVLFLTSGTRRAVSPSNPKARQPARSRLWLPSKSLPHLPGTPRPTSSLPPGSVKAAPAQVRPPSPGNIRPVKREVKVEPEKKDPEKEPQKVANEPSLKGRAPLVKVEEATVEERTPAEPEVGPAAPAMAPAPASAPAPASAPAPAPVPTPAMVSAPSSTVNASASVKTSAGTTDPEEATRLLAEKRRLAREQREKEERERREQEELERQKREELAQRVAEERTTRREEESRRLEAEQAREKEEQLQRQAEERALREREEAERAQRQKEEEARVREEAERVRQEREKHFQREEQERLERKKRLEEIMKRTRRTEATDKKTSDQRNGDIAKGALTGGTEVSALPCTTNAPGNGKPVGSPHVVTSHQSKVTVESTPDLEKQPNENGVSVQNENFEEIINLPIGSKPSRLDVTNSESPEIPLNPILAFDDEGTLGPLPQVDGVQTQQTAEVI

Row | Variant | effect of a mutation on the interaction
4 | I277T | disrupting interaction strength

Variants of: B1
Details: with myp2_human PMP2, P02689

Row | Variant | effect of a mutation on the interaction
5 | I277T | disrupting interaction strength

Variants of: B1
Details: with rl39l_human RPL39L

Row | Variant | effect of a mutation on the interaction
6 | I277T | disrupting interaction strength

Variants of: B1
Details: with zn707_human ZNF707, Q96C28
Sequence of zn707_human ZNF707, Q96C28 (Q96C28 whole entry): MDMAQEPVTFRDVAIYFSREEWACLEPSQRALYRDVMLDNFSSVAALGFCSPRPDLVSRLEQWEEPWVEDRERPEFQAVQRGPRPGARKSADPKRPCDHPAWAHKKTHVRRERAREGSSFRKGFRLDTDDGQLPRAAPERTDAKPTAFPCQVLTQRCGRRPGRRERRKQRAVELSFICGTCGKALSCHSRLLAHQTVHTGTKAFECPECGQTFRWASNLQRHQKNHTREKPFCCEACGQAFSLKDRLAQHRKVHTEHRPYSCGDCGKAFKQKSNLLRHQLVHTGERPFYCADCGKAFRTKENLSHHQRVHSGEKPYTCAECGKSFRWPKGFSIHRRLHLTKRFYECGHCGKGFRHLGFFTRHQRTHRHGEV

Row | Variant | effect of a mutation on the interaction
7 | I277T | disrupting interaction strength

Variants of: B1
Details: with bmp7_human BMP7, P18075
Sequence of bmp7_human BMP7, P18075 (P18075 whole entry): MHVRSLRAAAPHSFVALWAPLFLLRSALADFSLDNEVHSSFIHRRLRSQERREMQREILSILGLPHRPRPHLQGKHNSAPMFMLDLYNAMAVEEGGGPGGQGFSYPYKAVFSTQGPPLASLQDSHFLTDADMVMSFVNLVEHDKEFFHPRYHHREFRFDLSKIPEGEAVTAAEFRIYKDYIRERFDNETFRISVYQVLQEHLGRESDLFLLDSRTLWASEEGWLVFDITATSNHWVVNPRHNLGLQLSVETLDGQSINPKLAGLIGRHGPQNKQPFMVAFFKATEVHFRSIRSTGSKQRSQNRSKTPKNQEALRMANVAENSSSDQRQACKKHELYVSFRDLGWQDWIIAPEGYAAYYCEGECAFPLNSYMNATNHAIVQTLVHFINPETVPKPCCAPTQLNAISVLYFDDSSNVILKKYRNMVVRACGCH

Row | Variant | effect of a mutation on the interaction
8 | I277T | disrupting interaction strength

Variants of: B1
Details: with zn136_human ZNF136, P52737
Sequence of zn136_human ZNF136, P52737 (P52737 whole entry): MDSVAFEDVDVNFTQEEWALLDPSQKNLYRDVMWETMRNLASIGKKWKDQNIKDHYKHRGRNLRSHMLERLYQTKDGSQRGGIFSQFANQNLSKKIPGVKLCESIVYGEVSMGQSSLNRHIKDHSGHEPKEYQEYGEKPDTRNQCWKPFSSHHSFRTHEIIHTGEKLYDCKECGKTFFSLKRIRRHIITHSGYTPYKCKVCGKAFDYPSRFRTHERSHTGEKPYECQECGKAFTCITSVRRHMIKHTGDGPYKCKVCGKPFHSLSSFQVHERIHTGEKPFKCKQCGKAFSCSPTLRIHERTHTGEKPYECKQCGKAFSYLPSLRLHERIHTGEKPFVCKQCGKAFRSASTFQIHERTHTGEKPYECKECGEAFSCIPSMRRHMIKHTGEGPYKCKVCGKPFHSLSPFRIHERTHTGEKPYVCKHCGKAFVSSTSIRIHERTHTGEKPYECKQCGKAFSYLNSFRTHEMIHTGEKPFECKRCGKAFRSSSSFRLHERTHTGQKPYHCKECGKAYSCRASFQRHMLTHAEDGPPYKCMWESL

Row | Variant | effect of a mutation on the interaction
9 | I277T | disrupting interaction strength

Variants of: B1
Details: with cul5_human CUL5, Q93034
Sequence of cul5_human CUL5, Q93034 (Q93034 whole entry): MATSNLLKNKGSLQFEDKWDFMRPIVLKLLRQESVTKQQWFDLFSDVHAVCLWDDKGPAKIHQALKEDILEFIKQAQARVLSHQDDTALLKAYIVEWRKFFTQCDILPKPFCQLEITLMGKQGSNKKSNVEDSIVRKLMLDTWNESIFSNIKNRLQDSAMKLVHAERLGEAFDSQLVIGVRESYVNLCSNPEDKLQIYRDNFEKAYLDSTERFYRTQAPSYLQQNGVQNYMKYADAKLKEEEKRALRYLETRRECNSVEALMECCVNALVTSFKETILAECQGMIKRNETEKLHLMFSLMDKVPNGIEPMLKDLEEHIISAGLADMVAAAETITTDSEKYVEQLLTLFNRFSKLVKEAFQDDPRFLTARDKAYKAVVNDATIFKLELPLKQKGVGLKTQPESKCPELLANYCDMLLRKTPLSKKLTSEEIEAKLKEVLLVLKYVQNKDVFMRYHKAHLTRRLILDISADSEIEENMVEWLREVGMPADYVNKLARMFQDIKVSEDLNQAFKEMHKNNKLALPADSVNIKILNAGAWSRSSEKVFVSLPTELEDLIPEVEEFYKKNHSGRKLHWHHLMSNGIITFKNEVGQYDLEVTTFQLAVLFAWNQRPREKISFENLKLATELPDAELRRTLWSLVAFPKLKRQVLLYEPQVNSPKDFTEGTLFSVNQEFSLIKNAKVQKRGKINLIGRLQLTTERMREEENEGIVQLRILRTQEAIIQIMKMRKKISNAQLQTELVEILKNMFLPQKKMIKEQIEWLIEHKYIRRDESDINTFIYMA

Row | Variant | effect of a mutation on the interaction
10 | I277T | disrupting interaction strength

Variants of: B1
Details: with zn555_human ZNF555, Q8NEP9
Sequence of zn555_human ZNF555, Q8NEP9 (Q8NEP9 whole entry): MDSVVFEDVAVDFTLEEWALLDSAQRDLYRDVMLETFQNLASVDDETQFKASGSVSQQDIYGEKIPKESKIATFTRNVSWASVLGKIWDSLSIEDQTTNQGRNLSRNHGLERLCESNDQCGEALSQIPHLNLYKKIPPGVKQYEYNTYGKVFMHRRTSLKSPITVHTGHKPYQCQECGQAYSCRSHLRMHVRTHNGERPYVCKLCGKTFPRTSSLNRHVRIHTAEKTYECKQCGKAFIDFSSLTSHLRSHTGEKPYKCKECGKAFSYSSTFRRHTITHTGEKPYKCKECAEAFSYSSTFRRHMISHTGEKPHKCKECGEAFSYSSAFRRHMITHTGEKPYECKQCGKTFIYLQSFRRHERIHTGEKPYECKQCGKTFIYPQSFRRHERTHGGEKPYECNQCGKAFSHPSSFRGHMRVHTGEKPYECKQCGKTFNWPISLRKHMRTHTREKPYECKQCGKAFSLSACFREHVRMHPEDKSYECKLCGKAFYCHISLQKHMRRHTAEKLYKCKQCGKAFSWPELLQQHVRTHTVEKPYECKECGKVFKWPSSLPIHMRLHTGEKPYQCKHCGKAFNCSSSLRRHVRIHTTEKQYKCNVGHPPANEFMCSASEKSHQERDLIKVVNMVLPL

Row | Variant | effect of a mutation on the interaction
11 | I277T | disrupting interaction strength

Variants of: B1
Details: with ilf2_human ILF2, Q12905
Sequence of ilf2_human ILF2, Q12905 (Q12905 whole entry): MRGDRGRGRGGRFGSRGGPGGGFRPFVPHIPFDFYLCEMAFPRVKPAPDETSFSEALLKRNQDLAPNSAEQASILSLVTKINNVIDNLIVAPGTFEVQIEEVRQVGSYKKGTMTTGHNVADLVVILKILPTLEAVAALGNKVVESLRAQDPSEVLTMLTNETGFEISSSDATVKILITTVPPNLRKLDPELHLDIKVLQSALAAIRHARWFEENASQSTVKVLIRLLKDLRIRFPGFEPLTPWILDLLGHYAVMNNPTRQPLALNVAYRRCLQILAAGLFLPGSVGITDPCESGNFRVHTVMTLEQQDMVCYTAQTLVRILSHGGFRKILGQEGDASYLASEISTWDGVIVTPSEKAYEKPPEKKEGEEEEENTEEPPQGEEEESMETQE

Row | Variant | effect of a mutation on the interaction
12 | I277T | disrupting interaction strength

Variants of: B1
Details: with tnnt1_human TNNT1, P13805

Row | Variant | effect of a mutation on the interaction
13 | I277T | disrupting interaction strength

Variants of: B1
Details: with nano2_human NANOS2, P60321
Sequence of nano2_human NANOS2, P60321 (P60321 whole entry): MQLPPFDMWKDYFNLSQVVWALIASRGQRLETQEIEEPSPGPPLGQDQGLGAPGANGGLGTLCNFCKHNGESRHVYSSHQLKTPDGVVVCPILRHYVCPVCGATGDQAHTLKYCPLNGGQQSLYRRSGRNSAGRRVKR

Row | Variant | effect of a mutation on the interaction
14 | I277T | disrupting interaction strength

Variants of: B1
Details: with tha10_human THAP10, Q9P2Z0
Sequence of tha10_human THAP10, Q9P2Z0 (Q9P2Z0 whole entry): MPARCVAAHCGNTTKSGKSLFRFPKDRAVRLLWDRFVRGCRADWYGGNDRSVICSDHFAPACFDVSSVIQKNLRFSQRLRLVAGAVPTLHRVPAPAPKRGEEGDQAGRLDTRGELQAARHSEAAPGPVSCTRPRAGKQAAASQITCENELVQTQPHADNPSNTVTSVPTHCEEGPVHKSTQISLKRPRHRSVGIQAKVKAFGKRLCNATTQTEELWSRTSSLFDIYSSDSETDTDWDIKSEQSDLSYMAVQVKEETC

Row | Variant | effect of a mutation on the interaction
15 | I277T | disrupting interaction strength

Variants of: B1
Details: with tppc5_human TRAPPC5, Q8IUR0
Sequence of tppc5_human TRAPPC5, Q8IUR0 (Q8IUR0 whole entry): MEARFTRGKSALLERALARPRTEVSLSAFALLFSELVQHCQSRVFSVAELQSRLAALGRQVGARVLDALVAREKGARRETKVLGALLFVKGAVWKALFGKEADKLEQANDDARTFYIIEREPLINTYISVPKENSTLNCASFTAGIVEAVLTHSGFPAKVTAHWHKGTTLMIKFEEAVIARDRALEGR

Row | Variant | effect of a mutation on the interaction
16 | I277T | disrupting interaction strength
